Experimental data reported in patent publication US20130011412A1 (Genentech, published 2013).

Columns and labels:
[1] = target: T1, recombinant human lymphotoxin-α homotrimer (human LTα3) (human, UniProt P01374 35-205); test: plate ELISA, IgG
T1 construct: Coated on plates in the ELISAs; also called rhLTα; lymphotoxin-α3 trimer
T1 sequence (looked up): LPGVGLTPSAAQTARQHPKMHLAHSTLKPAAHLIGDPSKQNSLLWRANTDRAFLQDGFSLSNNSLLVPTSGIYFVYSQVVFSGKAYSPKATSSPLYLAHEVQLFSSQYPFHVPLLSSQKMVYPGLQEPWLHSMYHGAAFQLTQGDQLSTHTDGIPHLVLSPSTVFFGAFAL

[2] = target: T1, recombinant human lymphotoxin-α …; test: plate ELISA on coated human LTα
[3] = target: T1, recombinant human lymphotoxin-α …; test: phage competitive ELISA, LTα (0-50 nM) in solution against plate-coated LTα
Method: (§1) For the first round, phage were captured for 2 hours against 2 μg/ml plate-coated LTα at ambient temperature. The second and third rounds of selection were performed at ambient temperature by capturing phage for 30 minutes with 2 nM biotinylated LTα in solution phase, followed by capture on neutravidin-coated plates. The highest affinity clone was identified using a competitive ELISA. Constant concentrations of phage clones (normalized by solid-phase LTα binding OD) were incubated with increasing concentrations of LTα (0-50 nM) in solution before capture on a plate coated with 2 μg/ml LTα.

[4] = target: T1, recombinant human lymphotoxin-α …; test: phage competitive ELISA: rhLTα in solution competes with plate-coated LTα
Method: as §1

[5] = target: T2, human LTα1β2 heterotrimer (R&D Systems) (human, UniProt P01374 35-205; Q06643 49-244, limits assumed); test: ELISA on coated LTα1β2
T2 construct: also called LTαβ
T2 sequence (looked up) 1: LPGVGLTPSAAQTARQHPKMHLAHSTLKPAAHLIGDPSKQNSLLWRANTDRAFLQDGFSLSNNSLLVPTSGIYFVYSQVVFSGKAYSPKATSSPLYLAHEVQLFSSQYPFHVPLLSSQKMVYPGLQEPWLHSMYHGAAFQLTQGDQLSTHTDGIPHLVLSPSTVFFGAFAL
T2 sequence (looked up) 2: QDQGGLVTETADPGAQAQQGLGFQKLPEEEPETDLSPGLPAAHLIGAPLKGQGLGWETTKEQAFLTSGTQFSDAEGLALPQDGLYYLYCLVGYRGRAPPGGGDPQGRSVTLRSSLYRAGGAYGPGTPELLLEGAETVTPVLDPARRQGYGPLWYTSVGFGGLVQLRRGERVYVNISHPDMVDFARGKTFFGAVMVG

[6] = target: T1, recombinant human lymphotoxin-α …; test: cell-based or functional assay
[7] = target: T3, human cell-surface LTαβ complex (LTα complexed with LTβ on the cell surface) (human, UniProt P01374 35-205; Q06643 1-244); test: FACS titration on human Th2 cells, Alexa Fluor 647 conjugates
T3 construct: whole, on cells; also called human LTαβ
T3 sequence (looked up) 1: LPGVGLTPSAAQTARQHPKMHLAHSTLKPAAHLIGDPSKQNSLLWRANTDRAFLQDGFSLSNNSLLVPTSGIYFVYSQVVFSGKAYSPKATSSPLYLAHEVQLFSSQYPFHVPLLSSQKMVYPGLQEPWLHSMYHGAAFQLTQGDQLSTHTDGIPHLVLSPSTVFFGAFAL
T3 sequence (looked up) 2: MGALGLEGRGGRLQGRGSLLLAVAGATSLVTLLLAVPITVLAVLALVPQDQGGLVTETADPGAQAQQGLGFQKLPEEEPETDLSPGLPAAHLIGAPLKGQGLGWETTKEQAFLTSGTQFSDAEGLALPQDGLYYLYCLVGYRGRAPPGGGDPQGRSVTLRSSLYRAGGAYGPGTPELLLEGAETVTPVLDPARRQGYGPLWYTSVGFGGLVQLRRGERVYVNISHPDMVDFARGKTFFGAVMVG
Method: Cells were washed, aspirated, and re-suspended in PBS with 2% FBS. Cells were analyzed on a FACSCALIBUR™ (dual laser) using […]™ software, and results analyzed on a FLOWJO™ analyzer (Treestar).

B1: humanized 2C8.v16 (antibody, human IgG1, V domains shown)
VH: EVQLVESGGGLVQPGGSLRLSCAASGYTFTSYVIHWVRQAPGKGLEWVGYNNPYNDGTNYNEKFKGRFTISSDKSKNTAYLQMNSLRAEDTAVYYCSRPTMLPWFAYWGQGTLVTVSS
VL: DIQMTQSPSSLSASVGDRVTITCRASQAVSSAVAWYQQKPGKAPKLLIYSASHRYTGVPSRFSGSGSGTDFTLTISSLQPEDFATYYCQESYSTPWTFGQGTKVEIKR
notes: Heavy chain: v12 variable domain on human IgG1; copies: 2 + 2
With B1 as the binder, how does the “fold improvement in binding compared to 2C8.v2” value [1] read?
The value was 2 fold.

And the “ELISA IC50 ratio” value [2]?
The value was 0.6 ratio.

B2: phage-displayed 2C8 Fab clone A8 (Fab, V domains shown)
VH: EVQLVESGGGLVQPGGSLRLSCAASGYTFTSYVIHWVRQAPGKGLEWVGYNNPYNDGTNYNEKFKGRATISSDKSKNTAYLQMNSLRAEDTAVYYCSRPTMLPWFAYWGQGTLVTVSS
VL: DIQMTQSPSSLSASVGDRVTITCRASQAVSSAVAWYQQKPGKAPKLQIYSASHRYTGVPSRFSGSGSGTDFTLTISSLQPEDFATYYCQESYSTPWTFGQGTKVEIKR
notes: All phagemids kept the wild-type CDR-H3; also called 2C8 clone A8
Which “fold improvement in competition over wild-type 2C8.v2” value [3] does the source give for B2 here?
Its value is 10 fold.

What about the IC50 [4] of the same binder?
The IC50 was 320 pM.

B3: human TNFRII.huIgG1 (ENBREL®) (Fc fusion, UniProt P20333 23-257, looked up)
chain: LPAQVAFTPYAPEPGSTCRLREYYDQTAQMCCSKCSPGQHAKVFCTKTSDTVCDSCEDSTYTQLWNWVPECLSCGSRCSSDQVETQACTREQNRICTCRPGWYCALSKQEGCRLCAPLRKCRPGFGVARPGTETSDVVCKPCAPGTFSNTTSSTDICRPHQICNVVAIPGNASMDAVCTSTSPTRSMAPGAVHLPQPVSTRSQHTQPTPEPSTAPSTSFLLPMGPSPPAEGSTGD
notes: extracellular domain; also called TNFRII.Fc; etanercept; not shown: Fc portion of a human IgG1
Does B3 bind [5]?
Result: no binding

What about the “IC50, blocking of human LT-induced cytotoxicity” value [6] of the same binder?
The value was 830 pM.

Does B3 bind [7]?
Result: no binding (tested: 100 ug/ml)
